Results published in publication PMC10397247.

How the values were obtained:
Test in all cases: two-hybrid library CCmax;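 also: natural log of median RNA to DNA barcode read ratio; higher means stronger binding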
N6-AA = target: T1, N6-AA; conditions: mean of both orientations
T1 chain: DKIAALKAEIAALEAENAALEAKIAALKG

N5-AA = target: T2, N5-AA
T2 chain: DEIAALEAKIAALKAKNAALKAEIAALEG

4H993-AA = target: T3, 4H993-AA; conditions: mean of both orientations
T3 chain: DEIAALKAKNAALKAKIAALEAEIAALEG

4H1867-AA = target: T4, 4H1867-AA; conditions: mean of both orientations
T4 chain: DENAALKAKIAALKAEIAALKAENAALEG

4H429-AA = target: T5, 4H429-AA; conditions: mean of both orientations
T5 chain: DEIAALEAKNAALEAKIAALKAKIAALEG

4H48-AA = target: T6, 4H48-AA; conditions: mean of both orientations
T6 chain: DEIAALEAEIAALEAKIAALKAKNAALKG

4H2883-AA = target: T7, 4H2883-AA; conditions: mean of both orientations
T7 chain: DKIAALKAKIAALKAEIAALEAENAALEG

4H717-AA = target: T8, 4H717-AA; conditions: mean of both orientations
T8 chain: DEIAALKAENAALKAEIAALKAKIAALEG

4H3427-AA = target: T9, 4H3427-AA; conditions: mean of both orientations
T9 chain: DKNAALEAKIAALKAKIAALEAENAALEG

4H3627-AA = target: T10, 4H3627-AA; conditions: mean of both orientations
T10 chain: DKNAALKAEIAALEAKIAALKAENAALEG

4H2837-AA = target: T11, 4H2837-AA; conditions: mean of both orientations
T11 chain: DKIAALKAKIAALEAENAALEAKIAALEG

4H335-AA = target: T12, 4H335-AA; conditions: mean of both orientations
T12 chain: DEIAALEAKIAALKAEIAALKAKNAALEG

4H1842-AA = target: T13, 4H1842-AA
T13 chain: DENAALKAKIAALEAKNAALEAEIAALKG

4H2949-AA = target: T14, 4H2949-AA; conditions: mean of both orientations
T14 chain: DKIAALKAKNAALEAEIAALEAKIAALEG

4H1552-AA = target: T15, 4H1552-AA; conditions: mean of both orientations
T15 chain: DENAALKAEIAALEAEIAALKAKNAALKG

4H234-AA = target: T16, 4H234-AA; conditions: mean of both orientations
T16 chain: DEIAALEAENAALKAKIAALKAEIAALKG

4H881-AA = target: T17, 4H881-AA; conditions: mean of both orientations
T17 chain: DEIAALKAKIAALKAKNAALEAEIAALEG

4H2466-AA = target: T18, 4H2466-AA
T18 chain: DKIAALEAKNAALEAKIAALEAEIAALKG

4H2729-AA = target: T19, 4H2729-AA; conditions: mean of both orientations
T19 chain: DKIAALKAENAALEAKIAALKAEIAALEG

4H2354-AA = target: T20, 4H2354-AA; conditions: mean of both orientations
T20 chain: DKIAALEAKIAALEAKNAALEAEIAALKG

4H317-AA = target: T21, 4H317-AA; conditions: mean of both orientations
T21 chain: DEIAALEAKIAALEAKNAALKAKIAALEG

4H2617-AA = target: T22, 4H2617-AA; conditions: mean of both orientations
T22 chain: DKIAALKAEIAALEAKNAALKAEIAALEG

4H3343-AA = target: T23, 4H3343-AA; conditions: mean of both orientations
T23 chain: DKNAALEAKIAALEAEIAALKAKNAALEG

4H906-AA = target: T24, 4H906-AA; conditions: mean of both orientations
T24 chain: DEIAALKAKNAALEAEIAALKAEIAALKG

4H3112-AA = target: T25, 4H3112-AA; conditions: mean of both orientations
T25 chain: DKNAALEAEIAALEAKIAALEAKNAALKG

4H1352-AA = target: T26, 4H1352-AA; conditions: mean of both orientations
T26 chain: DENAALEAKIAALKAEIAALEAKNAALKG

4H2165-AA = target: T27, 4H2165-AA; conditions: mean of both orientations
T27 chain: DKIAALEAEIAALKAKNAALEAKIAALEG

4H2190-AA = target: T28, 4H2190-AA; conditions: mean of both orientations
T28 chain: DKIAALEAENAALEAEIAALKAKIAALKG

4H342-AA = target: T29, 4H342-AA; conditions: mean of both orientations
T29 chain: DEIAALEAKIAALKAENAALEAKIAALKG

4H454-AA = target: T30, 4H454-AA; conditions: mean of both orientations
T30 chain: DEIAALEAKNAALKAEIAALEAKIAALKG

4H2754-AA = target: T31, 4H2754-AA; conditions: mean of both orientations
T31 chain: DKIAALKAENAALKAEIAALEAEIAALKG

4H2505-AA = target: T32, 4H2505-AA; conditions: mean of both orientations
T32 chain: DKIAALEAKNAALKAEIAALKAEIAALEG

4H3844-AA = target: T33, 4H3844-AA; conditions: mean of both orientations
T33 chain: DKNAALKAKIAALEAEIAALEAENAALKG

4H678-AA = target: T34, 4H678-AA; conditions: mean of both orientations
T34 chain: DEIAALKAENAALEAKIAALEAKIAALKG

4H2078-AA = target: T35, 4H2078-AA; conditions: mean of both orientations
T35 chain: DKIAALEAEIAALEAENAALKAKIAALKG

4H3606-AA = target: T36, 4H3606-AA; conditions: mean of both orientations
T36 chain: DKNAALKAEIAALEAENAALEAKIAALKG

4H780-AA = target: T37, 4H780-AA; conditions: mean of both orientations
T37 chain: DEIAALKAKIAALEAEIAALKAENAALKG

4H3921-AA = target: T38, 4H3921-AA; conditions: mean of both orientations
T38 chain: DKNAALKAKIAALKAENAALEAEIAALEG

4H2575-AA = target: T39, 4H2575-AA; conditions: mean of both orientations
T39 chain: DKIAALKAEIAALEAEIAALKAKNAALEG

4H794-AA = target: T40, 4H794-AA; conditions: mean of both orientations
T40 chain: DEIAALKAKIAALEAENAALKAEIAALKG

4H2642-AA = target: T41, 4H2642-AA; conditions: mean of both orientations
T41 chain: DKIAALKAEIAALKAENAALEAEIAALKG

4H3655-AA = target: T42, 4H3655-AA; conditions: mean of both orientations
T42 chain: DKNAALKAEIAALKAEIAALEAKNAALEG

4H2944-AA = target: T43, 4H2944-AA; conditions: mean of both orientations
T43 chain: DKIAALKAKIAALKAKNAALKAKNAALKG

4H1324-AA = target: T44, 4H1324-AA
T44 chain: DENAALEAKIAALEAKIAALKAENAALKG

4H605-AA = target: T45, 4H605-AA; conditions: mean of both orientations
T45 chain: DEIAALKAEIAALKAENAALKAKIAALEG

4H1401-AA = target: T46, 4H1401-AA; conditions: mean of both orientations
T46 chain: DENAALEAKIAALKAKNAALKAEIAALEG

4H2151-AA = target: T47, 4H2151-AA; conditions: mean of both orientations
T47 chain: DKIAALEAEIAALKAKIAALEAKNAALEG

4H2393-AA = target: T48, 4H2393-AA; conditions: mean of both orientations
T48 chain: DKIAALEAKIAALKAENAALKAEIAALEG

4H2277-AA = target: T49, 4H2277-AA; conditions: mean of both orientations
T49 chain: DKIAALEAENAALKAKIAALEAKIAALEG

4H566-AA = target: T50, 4H566-AA; conditions: mean of both orientations
T50 chain: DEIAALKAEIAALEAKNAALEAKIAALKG

4H1636-AA = target: T51, 4H1636-AA; conditions: mean of both orientations
T51 chain: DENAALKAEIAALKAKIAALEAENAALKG

DEIAALEAKIAALKAKNAALKAEIAALEG [N5-AA]
interaction score (N6-AA): 2.28
interaction score (N5-AA): -0.624

DENAALEAKIAALEAKIAALKAENAALKG [4H1324-AA]
interaction score (4H993-AA): 1.28
interaction score (4H1867-AA): 0.462
interaction score (4H429-AA): -1.18
interaction score (4H48-AA): 1.07
interaction score (4H2883-AA): 1.32
interaction score (4H717-AA): -1.26
interaction score (4H3427-AA): 0.0395
interaction score (4H3627-AA): 0.372
interaction score (4H2837-AA): -1.14
interaction score (4H335-AA): -0.376
interaction score (4H1842-AA): -1.92
interaction score (4H2949-AA): -1.16
interaction score (4H1552-AA): 1.17
interaction score (4H234-AA): -2.21
interaction score (4H881-AA): -1.69
interaction score (4H2466-AA): -1.2
interaction score (4H2729-AA): -1.35
interaction score (4H2354-AA): -1.59
interaction score (4H317-AA): -1.41
interaction score (4H2617-AA): -0.287
interaction score (4H3343-AA): 0.278
interaction score (4H906-AA): -1.42
interaction score (4H3112-AA): 0.0224
interaction score (4H1352-AA): 0.674
interaction score (4H2165-AA): -1.47
interaction score (4H2190-AA): -1.14
interaction score (4H342-AA): -1.05
interaction score (4H454-AA): -0.814
interaction score (4H2754-AA): -1.3
interaction score (4H2505-AA): -1.2
interaction score (4H3844-AA): 2.11
interaction score (4H678-AA): -1.52
interaction score (4H2078-AA): 1.78
interaction score (4H3606-AA): -1.02
interaction score (4H780-AA): 0.567
interaction score (4H3921-AA): -1.15
interaction score (4H2575-AA): 0.676
interaction score (4H794-AA): -1.34
interaction score (4H2642-AA): -0.934
interaction score (4H3655-AA): -0.51
interaction score (4H2944-AA): -1.01
interaction score (4H1324-AA): 1.4
interaction score (4H605-AA): -1.44
interaction score (4H1401-AA): -1.6
interaction score (4H2151-AA): -0.928
interaction score (4H2393-AA): -0.744
interaction score (4H2277-AA): -1.35
interaction score (4H566-AA): -1.31
interaction score (4H1636-AA): -0.551
